# Data reported in publication PMC5972661, “ECD1 functions as an RNA-editing trans-factor of rps14-149 in plastids and is required for early chloroplast development in seedlings”.
# T1: MBP-ECD1 (UniProt Q5G1T1 51-850)
# T1 sequence: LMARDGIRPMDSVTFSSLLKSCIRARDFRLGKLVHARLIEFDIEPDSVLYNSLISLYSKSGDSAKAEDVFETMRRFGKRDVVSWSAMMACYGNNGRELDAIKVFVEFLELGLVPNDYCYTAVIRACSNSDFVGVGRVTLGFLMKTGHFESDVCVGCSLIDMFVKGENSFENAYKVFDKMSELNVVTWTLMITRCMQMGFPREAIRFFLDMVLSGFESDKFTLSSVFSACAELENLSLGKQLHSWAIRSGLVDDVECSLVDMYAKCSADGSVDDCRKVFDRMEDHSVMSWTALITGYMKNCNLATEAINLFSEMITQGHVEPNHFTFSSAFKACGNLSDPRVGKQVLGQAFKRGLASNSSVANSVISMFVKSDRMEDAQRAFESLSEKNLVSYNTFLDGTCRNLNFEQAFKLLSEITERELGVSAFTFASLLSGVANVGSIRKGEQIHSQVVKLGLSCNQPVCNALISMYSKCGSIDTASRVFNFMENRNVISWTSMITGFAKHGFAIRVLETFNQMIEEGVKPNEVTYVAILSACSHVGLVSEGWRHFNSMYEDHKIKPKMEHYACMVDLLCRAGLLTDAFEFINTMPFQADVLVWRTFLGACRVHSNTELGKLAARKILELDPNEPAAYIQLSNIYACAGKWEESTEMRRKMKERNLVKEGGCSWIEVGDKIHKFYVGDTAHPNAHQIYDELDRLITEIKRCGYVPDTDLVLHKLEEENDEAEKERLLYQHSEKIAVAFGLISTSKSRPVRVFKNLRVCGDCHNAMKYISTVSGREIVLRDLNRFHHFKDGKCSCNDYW
# How the values were obtained:
# MBP-ECD1 [1] = molecular target: T1, MBP-ECD1; experiment: EMSA; 25, 50, 100 nM protein, 10 nM probe; unlabeled same RNA (10-, 50-, 100-fold) used as competitor confirmed specificity; LightShift Chemiluminescent RNA EMSA Kit (Thermo 20158), 20 min at 25 °C, 6% Tris-borate gel in 0.5x TBE; binding buffer, salt and pH not stated; conditions: protein: recombinant; tags: N-terminal MBP; primer adds HHHHHH-ENLYFQG (TEV site); label: 5' biotin; single strand
# MBP-ECD1 [2] = molecular target: T1, MBP-ECD1; experiment: EMSA; 25, 50, 100 nM protein, 10 nM probe; LightShift Chemiluminescent RNA EMSA Kit (Thermo 20158), 20 min at 25 °C, 6% Tris-borate gel in 0.5x TBE; binding buffer, salt and pH not stated; conditions: protein: recombinant; tags: N-terminal MBP; primer adds HHHHHH-ENLYFQG (TEV site); label: 5' biotin; single strand
Binder,binding result (MBP-ECD1 [1]),binding result (MBP-ECD1 [2])
GAAAAUUCAUGGAAAAUUACAAUCCCCACCGCG (ssRNA) [rps14-149],binds,–
AAAUAUCAUUUGAUUCGUCGAUCCUCAAAAAAG (ssRNA) [rps14-80],–,no binding
